Laboratory results from article PMC12861478, “Amino acid transporter CsBAT links GABA accumulation to flavonoid metabolism in Camellia sinensis” (Horticulture Research, 2025).

Columns and labels:
Test in all cases: cells, lysate or membranes
[1] = substrate: NC(=O)CC[C@H](N)C(=O)O; conditions: transport; nitrogen-starved cells in nitrogen-free YNB
[2] = substrate: N[C@@H](CCC(=O)O)C(=O)O; conditions: transport; nitrogen-starved cells in nitrogen-free YNB
[3] = substrate: CCNC(=O)CC[C@H](N)C(=O)O; conditions: transport; nitrogen-starved cells in nitrogen-free YNB
[4] = substrate: NCCCC(=O)O; conditions: transport; nitrogen-starved cells in nitrogen-free YNB; 0.09375–8 mM GABA; H+-dependent

B1: CsBAT (Camellia sinensis) (protein)
chain: MGWHSHSHVQNGDSSLDTGHTRLHELGYKQELKRDLSVVSNFAFSFSIISVLTGITTLYNTGLNYGGPVVLVYGWLIAGVFTMIVGLSMAEICSSYPTSGGLYYWSAKLAGPSWAPFASWLTGWFNIVGQWAVTTSVDFSLAQLIQVIILLSTGGKNGGGYQASKYVVIGIHGGILLLHAIINSLPITWLSLFGQFAALWNLIGVFVLMILIPTVAKEKASAKFVFTFFNTDNGDGINSKVYIFVLGLLMSQYTLTGYDASAHMTEETKSADKNGPKGIISAIGISVIVGWGYLLGVTFAVTKIPNLLSENNDAGGYAIAEVFYLAFKNRYGNGIGGIICLGVVAVAIFFCGMSSITSNSRMAYAFSRDGAMPLSSVWHKVNKHEVPLNAVWLSAIIAFCMALTSLGSIVAFQAMVSIATIGLYIAYALPIFFRVTLARKSFTPGPFNLGRYGVLVGWIAVLWVATISVLFSLPVSYPITDQTLNYTPVAVGGLLILTVASWIFSARHWFKGPITNIDDVL
For B1, the Km [1] was 400 ± 40 µM, the Km [2] was 580 ± 50 µM and the Km [3] was 360 ± 30 µM. It also gave a Km [4] of 290 ± 20 µM.
